Earlier results as cited in publication PMC11816674.

Tests used:
[1] = molecular target: IP3R N-terminal region (UniProt Q14643)
[2] = molecular target: Cav1.4 1579-1605 (Homo sapiens) (UniProt O60840)
Sequence of UniProt O60840 (O60840 1579-1605): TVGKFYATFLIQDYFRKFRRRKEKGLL

Sequence of UniProt Q14643 (Q14643 1-604): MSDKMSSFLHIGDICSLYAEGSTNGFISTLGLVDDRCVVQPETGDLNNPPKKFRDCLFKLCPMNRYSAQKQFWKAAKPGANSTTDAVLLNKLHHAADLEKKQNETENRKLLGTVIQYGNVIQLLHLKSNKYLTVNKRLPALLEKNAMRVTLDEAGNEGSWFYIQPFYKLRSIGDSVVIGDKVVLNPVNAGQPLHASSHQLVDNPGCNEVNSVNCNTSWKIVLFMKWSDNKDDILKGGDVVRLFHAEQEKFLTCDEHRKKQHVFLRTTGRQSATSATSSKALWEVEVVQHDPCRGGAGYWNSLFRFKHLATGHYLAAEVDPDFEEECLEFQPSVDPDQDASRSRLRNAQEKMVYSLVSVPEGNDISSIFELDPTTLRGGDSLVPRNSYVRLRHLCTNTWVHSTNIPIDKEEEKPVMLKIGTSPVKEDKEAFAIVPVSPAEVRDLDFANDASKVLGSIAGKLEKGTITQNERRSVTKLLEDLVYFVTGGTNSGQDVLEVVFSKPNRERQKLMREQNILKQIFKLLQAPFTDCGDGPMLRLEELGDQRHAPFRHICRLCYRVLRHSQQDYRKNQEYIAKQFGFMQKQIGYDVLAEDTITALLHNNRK

Row | Kd [1] [µM] | Kd [2] [µM] | Substance
1 | 3 | – | CaBP1 (from UniProt Q9NZU7)
2 | – | 0.8 | CaBP4 (from UniProt P57796)
